B1: Forkhead box protein P1 (Homo sapiens), Q9H334 (parent)
chain: MMQESGTETKSNGSAIQNGSGGSNHLLECGGLREGRSNGETPAVDIGAADLAHAQQQQQQALQVARQLLLQQQQQQQVSGLKSPKRNDKQPALQVPVSVAMMTPQVITPQQMQQILQQQVLSPQQLQVLLQQQQALMLQQQQLQEFYKKQQEQLQLQLLQQQHAGKQPKEQQQVATQQLAFQQQLLQMQQLQQQHLLSLQRQGLLTIQPGQPALPLQPLAQGMIPTELQQLWKEVTSAHTAEETTGNNHSSLDLTTTCVSSSAPSKTSLIMNPHASTNGQLSVHTPKRESLSHEEHPHSHPLYGHGVCKWPGCEAVCEDFQSFLKHLNSEHALDDRSTAQCRVQMQVVQQLELQLAKDKERLQAMMTHLHVKSTEPKAAPQPLNLVSSVTLSKSASEASPQSLPHTPTTPTAPLTPVTQGPSVITTTSMHTVGPIRRRYSDKYNVPISSADIAQNQEFYKNAEVRPPFTYASLIRQAILESPEKQLTLNEIYNWFTRMFAYFRRNAATWKNAVRHNLSLHKCFVRVENVKGAVWTVDEVEFQKRRPQKISGNPSLIKNMQSSHAYCTPLNAALQASMAENSIPLYTTASMGNPTLGNLASAIREELNGAMEHTNSNESDSSPGRSPMQAVHPVHVKEEPLDPEEAEGPLSLVTTANHSPDFDHDRDYEDEPVNEDME

The first assay covers variants of B1. Conditions: with foxp2_human FOXP2, O15409.
Sequence of foxp2_human FOXP2, O15409 (O15409 whole entry): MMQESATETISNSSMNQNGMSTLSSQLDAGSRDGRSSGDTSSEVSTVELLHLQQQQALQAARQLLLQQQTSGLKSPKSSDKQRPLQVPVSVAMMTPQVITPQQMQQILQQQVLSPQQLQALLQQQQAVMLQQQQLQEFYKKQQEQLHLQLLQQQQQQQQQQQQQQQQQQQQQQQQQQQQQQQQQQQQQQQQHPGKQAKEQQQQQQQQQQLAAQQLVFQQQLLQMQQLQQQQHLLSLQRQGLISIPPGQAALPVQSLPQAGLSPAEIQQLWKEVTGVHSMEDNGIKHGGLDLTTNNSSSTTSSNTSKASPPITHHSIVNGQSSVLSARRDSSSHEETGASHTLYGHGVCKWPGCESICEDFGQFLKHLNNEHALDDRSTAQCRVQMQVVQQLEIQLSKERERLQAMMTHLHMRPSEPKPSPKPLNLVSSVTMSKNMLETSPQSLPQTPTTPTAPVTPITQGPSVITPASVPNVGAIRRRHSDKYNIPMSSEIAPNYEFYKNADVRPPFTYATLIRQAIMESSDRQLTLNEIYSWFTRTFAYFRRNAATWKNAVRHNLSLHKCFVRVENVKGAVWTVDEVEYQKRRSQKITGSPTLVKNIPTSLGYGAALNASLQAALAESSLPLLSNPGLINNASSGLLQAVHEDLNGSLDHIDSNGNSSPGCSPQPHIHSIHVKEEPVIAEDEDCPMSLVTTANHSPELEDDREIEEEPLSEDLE
For the variant P215A, the “effect of a mutation on the interaction” value is “decreasing interaction strength”. Same read-out and setting: in the case of W534R it was “decreasing interaction strength”; in that of N597T, “with no effect”; in that of R465G, “with no effect”. The same measure, in the same setting: to R514C belongs “decreasing interaction strength”; to N570S, “with no effect”; to I107T, “disrupting interaction strength”.

The variants in a further assay derive from B1. The note with it: with foxp2_human FOXP2, O15409. The source holds these as a separate data set.
Turning to W534R, the “effect of a mutation on the interaction” value is given as “disrupting interaction strength”. Same read-out and setting: to R465G belongs “decreasing interaction strength”.

Values taken from IntAct's records for PubMed 26647308.
